Laboratory results as given in US20230279059A1 (VIB VZW, published 2023).

T1: split-BC Ena1B, C-terminal part (strands CDEFGHI) (Bacillus cereus NVH 0075-95)
T1 construct: also called split BC construct, C-terminal half
T1 chain: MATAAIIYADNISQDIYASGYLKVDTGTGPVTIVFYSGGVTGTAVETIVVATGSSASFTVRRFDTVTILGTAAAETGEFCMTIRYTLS

B1: recombinant Ena1B with N-terminal 6xHis tag and TEV cleavage site (other)
chain: MHHHHHHSSGENLYFQGNCSTNLSCCANGQKTIVQDKVCIDWTAAATAAIIYADNISQDIYASGYLKVDTGTGPVTIVFYSGGVTGTAVETIVVATGSSASFTVRRFDTVTILGTAAAETGEFCMTIRYTLS
B2: recEna1B after removal of the N-terminal 6xHis tag by TEV protease (other)
chain: GNCSTNLSCCANGQKTIVQDKVCIDWTAAATAAIIYADNISQDIYASGYLKVDTGTGPVTIVFYSGGVTGTAVETIVVATGSSASFTVRRFDTVTILGTAAAETGEFCMTIRYTLS
notes: also called in vitro Ena1B fibers; recENA1B (PDB7A02)
B3: recombinant Ena1C with N-terminal 6xHis tag and TEV cleavage site (other)
chain: MHHHHHHSSGENLYFQGKPHKNIGCFAPLSIICQPTCPCPPPILPPERGDAELVTNEFAGDILISNDFIPISQKQLKQTNTTVNIWKNDGIVSLSGTISIYNNRNSTNALSIQIISSTTNTFTALPGNTISYTGFDLQSVSVIDIPSDPSIYIEGRYCFQLTYCKSKRDCL
notes: also called recEna1C; WP_000802321
B4: Bacillus cereus NVH 0075-95 Endospore appendage (Ena) 1A, wild type (other)
chain: MACECSSTVLTCCSDNSSNFVQDKVCNPWSSAEASTFTVYANNVNQNIVGTGYLTYDVGPGVSPANQITVTVLDSGGGTIQTFLVNEGTSISFTFRRFNIIQITTPATPIGTYQGEFCITTRYLMA
notes: also called KMP91697.1; WP_000742049.1
B5: Bacillus cereus NVH 0075-95 Endospore appendage (Ena) 1B, wild type (other)
chain: MGNCSTNLSCCANGQKTIVQDKVCIDWTAAATAAIIYADNISQDIYASGYLKVDTGTGPVTIVFYSGGVTGTAVETIVVATGSSASFTVRRFDTVTILGTAAAETGEFCMTIRYTLS
notes: also called WT Ena1B; WT recEna1B
B6: Ena2A after removal of the 6×His-TEV blocker by TEV protease (other)
chain: MSCECSGSALTCCPDKNYVQDKVCSPWSATVVATAIDNVLYTNNINQNVVGTGFVKYDVGPGPITVEALDSAGGTIDTQTLNPGTSIAFTYRRFDSIQVVLPATPAGTYQGEFCITTRYPLS
notes: also called in vitro assembled Ena2A filament
B7: Ena2A without steric block (other)
chain: B6 chain
notes: also called WP_001277540.1
B8: Ena2C after removal of the 6×His-TEV blocker by TEV protease (other)
chain: MKNKKNIGCFAPLSIICPDPCPPPPPPNPNCERVTNEFAGNFLITNNTIPSAKDASQSMILWQSDGILLISGTVSVYNSTSSTETITIQIVGTVTNIFTVFPGNTISYTGKDLHSVSIINITSNPSLYLEGKYCCEFTCCL
notes: also called short L-like Ena2C filaments
B9: recEna1BΔNtc (deletion of residues 2-15 of WT Ena1B) (other)
chain: MKTIVQDKVCIDWTAAATAAIIYADNISQDIYASGYLKVDTGTGPVTIVFYSGGVTGTAVETIVVATGSSASFTVRRFDTVTILGTAAAETGEFCMTIRYTLS
B10: M-TEV-Ena1B (M-[…]-Ena1B), steric block of 6 amino acids (other)
chain: MENLYFQGNCSTNLSCCANGQKTIVQDKVCIDWTAAATAAIIYADNISQDIYASGYLKVDTGTGPVTIVFYSGGVTGTAVETIVVATGSSASFTVRRFDTVTILGTAAAETGEFCMTIRYTLS
notes: also called M-TEV-Ena1B (N=6)
B11: M-His6-SSG-Ena1B, steric block of 9 amino acids (other)
chain: MHHHHHHSSGGNCSTNLSCCANGQKTIVQDKVCIDWTAAATAAIIYADNISQDIYASGYLKVDTGTGPVTIVFYSGGVTGTAVETIVVATGSSASFTVRRFDTVTILGTAAAETGEFCMTIRYTLS
B12: Ena1B-DE-Flag insertion variant (other)
chain: MGNCSTNLSCCANGQKTIVQDKVCIDWTAAATAAIIYADNISQDIYASGYLKVDTGSDYKDDDDKGSGPVTIVFYSGGVTGTAVETIVVATGSSASFTVRRFDTVTILGTAAAETGEFCMTIRYTLS
B13: Ena1B-HI-HA insertion variant (other)
chain: MGNCSTNLSCCANGQKTIVQDKVCIDWTAAATAAIIYADNISQDIYASGYLKVDTGTGPVTIVFYSGGVTGTAVETIVVATGSSASFTVRRFDTVTILGGSYPYDVPDYAGSAAETGEFCMTIRYTLS
B14: split-BC Ena1B, N-terminal part (strands AB) (other)
chain: MGNCSTNLSCCANGQKTIVQDKVCIDWTAA
notes: also called split BC construct, N-terminal half

Tests used:
[1] = target: the molecule itself; assay: self-assembly after refolding from 8M urea, negative stain TEM
[2] = target: the molecule itself; assay: self-assembly after TEV cleavage of the His-tag, TEM
[3] = target: B1; assay: epitaxial growth on maleimide magnetic beads carrying 6×His_TEV_Ena1B multimers, nsTEM
[4] = target: the molecule itself; assay: self-assembly after refolding by dialysis, EM
[5] = target: B5; assay: immunogold TEM and cryoEM of ex vivo S-type Enas; both subunits within single fibers
[6] = target: the molecule itself; assay: self-assembly of tag-free protein in the E. coli cytoplasm, negative stain TEM
[7] = target: the molecule itself; assay: in vitro self-assembly after TEV cleavage, NS-TEM and cryo-EM
[8] = target: the molecule itself; assay: self-assembly in the E. coli cytoplasm, NS-TEM
[9] = target: the molecule itself; assay: in vitro self-assembly after TEV cleavage, cryo-EM
[10] = target: the molecule itself; assay: expression in E. coli, ns-TEM
[11] = target: the molecule itself; assay: expression in E. coli, nsTEM
[12] = target: T1, split-BC Ena1B, C-terminal part …; assay: co-expression of the two halves in E. coli, NS-TEM

## B1
[1]
  binding result: binds

## B2
[2]
  binding result: binds
[3]
  binding result: binds

## B3
[4]
  binding result: binds

## B4
[5]
  binding result: binds
[6]
  binding result: binds

## B5
[6]
  binding result: binds

## B6
[7]
  binding result: binds

## B7
[8]
  binding result: binds

## B8
[9]
  binding result: binds

## B9
[10]
  binding result: binds

## B10
[10]
  binding result: binds

## B11
[10]
  binding result: binds

## B12
[11]
  binding result: binds

## B13
[11]
  binding result: binds

## B14
[12]
  binding result: binds
